The target of assay [1] is full-length human E-cadherin fused to GFP at the C-terminus, on A431-D cells (A431-D^E-cad) (human) (UniProt P12830).
Assay [2] concerns the target full-length wild-type human N-cadherin on A431-D cells (A431-D^N-cad; A431-D^N-cad+FGFR) (human) (UniProt P19022).
The target is the same in assay [3]. The source holds these as a separate data set.
Assay [4] has as its target Fc-tagged extracellular domain of E-cadherin (E-cad-Fc) (UniProt P12830).
Assay [5] has as its target Fc-tagged extracellular domain of N-cadherin (N-cad-Fc) (UniProt P19022).
Assay [6] addresses Fc-tagged extracellular domain of E-cadherin (E-cad-Fc) (UniProt P12830). The source holds these as a separate data set.
The target of assay [7] is Fc-tagged extracellular domain of N-cadherin (N-cad-Fc) (UniProt P19022). The source holds these as a separate data set.
For assay [8] the target is unchanged. The assay is described as follows: capillary shear flow cell adhesion assay; as a1, but with A431-D^N-cad+FGFR cells (N-cad co-expressed with FGFR1) on N-cad-Fc-coated capillaries.
The target of assay [9] is Fc-tagged extracellular domain of E-cadherin (E-cad-Fc) (UniProt P12830). Nature of the assay: density of cells attached to cadherin-coated substrates; A431-D^E-cad or A431-D^N-cad+FGFR cells counted 90 min after seeding in 0.5% serum with the fibronectin-blocking antibody 16G3 on E-cad-Fc or N-cad-Fc substrates; further samples treated with Gefitinib, BGJ398, DECMA-1 or anti-N-cad antibody.

For assay [10], the target named is Fc-tagged extracellular domain of N-cadherin (N-cad-Fc) (UniProt P19022). The description is as above.
Assay [11] shares this target. The assay is described as follows: capillary shear flow cell adhesion assay; cadherin-Fc (50 µg/ml) physisorbed on the inner walls of glass capillaries, blocked with BSA; A431-D^E-cad or A431-D^N-cad cells bound 20 min under static conditions, room temperature, low-serum medium with 2 mM Ca2+, then flow increased every 30 s; WSS50 from fits to Eqn 1.
Assay [12] has as its target Fc-tagged extracellular domain of E-cadherin (E-cad-Fc) (UniProt P12830). The source holds these as a separate data set.
For assay [13], the target named is Fc-tagged extracellular domain of N-cadherin (N-cad-Fc) (UniProt P19022). This is another data set of the same source.
Assay [14] has as its target endogenous human E-cadherin on MCF-7 cells (human) (UniProt P12830).

From PMC11883276 come the findings set out here.

Turning to “Fc-tagged extracellular domain of N-cadherin (N-cad-Fc) (from UniProt P19022 160-724) (Fc fusion)”, the relative change of cell stiffness during bead twisting (MTC), N-cad beads on A431-D^E-cad cells in [1] is -3.6%. In assay [2], this substance displayed a relative change of cell stiffness during bead twisting (MTC), N-cad beads on A431-D^N-cad cells (no FGFR) of 4%. The same substance gave a relative change of cell stiffness during bead twisting (MTC), N-cad beads on A431-D^N-cad+FGFR cells in assay [3] of 17%.
In [4], “full-length wild-type human N-cadherin on A431-D cells (A431-D^N-cad; A431-D^N-cad+FGFR) (from UniProt P19022 26-906) (receptor)” showed an RMS traction stress of A431-D^N-cad+FGFR cells on E-cad-Fc-coated 40 kPa gels, 0.5% serum of 100 Pa. Besides, the RMS traction stress of A431-D^N-cad+FGFR cells on N-cad-Fc-coated 40 kPa gels, 0.5% serum in assay [5] turned out to be 176 Pa. The substance further returned an RMS traction stress of A431D^N-cad cells (no FGFR) on E-cad-Fc-coated 40 kPa gels in [6] of 88 Pa. The same substance yielded an RMS traction stress of A431D^N-cad cells (no FGFR) on N-cad-Fc-coated 40 kPa gels in [7] of 85 Pa. Also, the values for the WSS50 (wall shear stress at which 50% of the cells are retained) in assay [8] and in assay [11] were 17 dynes/cm^2 and 15 dynes/cm^2, respectively. In addition, the density of cells attached to the substrate in [9] came to 15 cells/mm²; in [10], 22 cells/mm².
“full-length human E-cadherin fused to GFP at the C-terminus, on A431-D cells (A431-D^E-cad) (from UniProt P12830 23-882) (receptor)” gave an RMS traction stress of A431-D^E-cad cells on E-cad-Fc-coated 40 kPa gels, 0.5% serum in assay [12] of 160 Pa. The same substance returned an RMS traction stress of A431-D^E-cad cells on N-cad-Fc-coated 40 kPa gels, 0.5% serum in [13] of 82 Pa. Besides, the figures for the density of cells retained on the substrate in assay [9] and in assay [10] were 25 cells/mm^2 and 19 cells/mm^2, respectively.
In [1], “Fc-tagged extracellular domain of E-cadherin (E-cad-Fc) (from UniProt P12830 155-709) (Fc fusion)” returned a relative change of cell stiffness during bead twisting (MTC), E-cad beads on A431-D^E-cad cells of 16%. This substance also showed a relative change of cell stiffness during bead twisting (MTC), E-cad beads on MCF-7 cells in assay [14] of 17%. Moreover, in [2], the relative change of cell stiffness during bead twisting (MTC), E-cad beads on A431-D^N-cad cells (no FGFR) was -1%.
